The nature of the data set: amyloid nucleation score (Sup35N fusion, yeast selection) (log enrichment); library NNK1; higher = more nucleation; inactive = no reads after selection. The method, boiled down: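 The nucleation score equals the log enrichment of output over input reads from DiMSum, centred on the mode score of non-aggregating sequences. It was computed only for sequences with 100 or more input reads. The reads came from Illumina sequencing of plasmid inserts from psi-negative yeast expressing Sup35N fused to peptides of 20 random codons, induced with 100 μM copper sulfate for 24 hours and grown 7 days at 30°C without adenine and uracil.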

Drawing on the supplement of paper PMC12042874, this text covers amyloid nucleation score for 141 substances.

± gives the uncertainty stated by the source.

In the case of FFVLKGECVGGLMPWTRVTA, the amyloid nucleation score is -0.24 ± 0.92.

Regarding VNKHL, the amyloid nucleation score is -0.329 ± 0.36.

Consider DSLVGVARDSMTSKQHNKNE, for which the amyloid nucleation score is -0.112 ± 0.69.

Turning to AGHSCQSTMTGCYTFHSYVW, the amyloid nucleation score was -0.102 ± 0.49.

On to AVFLY, for which the amyloid nucleation score was -0.153 ± 0.33.

As to NPFYKT, the amyloid nucleation score came out at 0.268 ± 0.37.

RQLTSVCYKSVDGE showed an amyloid nucleation score of 0.516 ± 0.93.

In the case of IVFLKLWEQVGWTVIDNLGV, the amyloid nucleation score is -0.552 ± 1.4.

ICSRTVKFYSSSF: the amyloid nucleation score was -2.03 ± 2.4.

Consider RLLRFGENFDCWKYLNVALE, for which the amyloid nucleation score is 0.004 ± 0.42.

In turn, NLTFGYVGHK gave an amyloid nucleation score of 3.91 ± 0.087.

In the case of NELNLYGSEFAFYWVDKLCH, the amyloid nucleation score was 4.13 ± 0.073.

TTSVV: the amyloid nucleation score is -0.174 ± 1.2.

Take RTLGDSNGNNVGLQVVPKCL: the amyloid nucleation score was -0.108 ± 0.31.

In the case of SWIHVHHL, the amyloid nucleation score turned out to be 0.691 ± 0.7.

Turning to IRFFKCLTCVSDCGN, the amyloid nucleation score entry is “inactive”.

As for YSISFSYHGVVCGSGSNRGV, the amyloid nucleation score is -0.589 ± 0.63.

With VLNLIRRGIWGYHHEMGTG, the amyloid nucleation score was -0.947 ± 0.81.

Regarding YKWLLAGGNTKCSKVRNAYW, the amyloid nucleation score was -0.356 ± 0.39.

For the substance VVLDAFIPWYSLLATSSVGA, the amyloid nucleation score was -0.777 ± 2.4.

Consider CVDRNG, for which the amyloid nucleation score is -0.362 ± 0.39.

As for TYGDGEAE, the amyloid nucleation score result is “inactive”.

As for CSILF, the amyloid nucleation score is 0.011 ± 0.75.

Substance IAYKPLTWSSWEGSISIIRV returned an amyloid nucleation score of 0.149 ± 0.4.

Substance CKSRR yielded an amyloid nucleation score of 0.034 ± 0.69.

NSEKLPMHPRGHAGQAWVQS had an amyloid nucleation score of 0.153 ± 0.45.

As for AYVDAL, the amyloid nucleation score came to 1.53 ± 0.48.

In the case of EILETGRCLSFLYRIVDGCI, the amyloid nucleation score entry was “inactive”.

The substance VGELYFIVWMDLLLVGWDGR showed an amyloid nucleation score of 0.897 ± 0.53.

For the substance NTHSPSFGFAMIRSGDTEKF, the amyloid nucleation score result is “inactive”.

For SVSYVELLGAFIKGLGIIYF, the amyloid nucleation score is -0.999 ± 0.63.

In the case of GTFALIN, the amyloid nucleation score is -1.2 ± 0.68.

On to GGSLVSGSFDKYSYSKYRLW, for which the amyloid nucleation score was -0.128 ± 1.4.

For the substance STYPLEEYKGSGCLAG, the amyloid nucleation score is -0.522 ± 0.39.

As for WESEFYLGLELERVAGGSGG, the amyloid nucleation score is -1.03 ± 2.7.

MEFNMWYLFGDLLVTLDWPK came in with an amyloid nucleation score of 0.044 ± 0.45.

In turn, IEIKTIFVSFLFCECKFCGY came in with an amyloid nucleation score of 5.63 ± 0.057.

As to HSDSNWIVDVLHSLYDKWLV, the amyloid nucleation score was found to be 0.913 ± 0.5.

Turning to WLSETAAWENTYRCLRILHG, the amyloid nucleation score was -0.446 ± 0.4.

Substance ETALVVLTRVTEGCGRGQKT gave an amyloid nucleation score of 0.668 ± 0.77.

For the substance LAQSGIDIYLRKGMDARKMR, the amyloid nucleation score was -0.516 ± 0.32.

GVCKTYSIDKAPI yielded an amyloid nucleation score of 0.823 ± 0.51.

On to TSIFCGSLLGAKVDSTPVPV, for which the amyloid nucleation score was -1.27 ± 2.4.

For the substance MVQAPLTSQPYNNGMVRQK, the amyloid nucleation score was -0.055 ± 0.5.

For the substance IFYIYLRGLVMIVRRSMVIR, the amyloid nucleation score entry was “inactive”.

For the substance WHAHFEFNMLGILCRHFCSL, the amyloid nucleation score came out at 3.19 ± 0.16.

In turn, MSHWTMGREWITHLFSGHWG came in with an amyloid nucleation score of 0.945 ± 1.1.

For the substance FLCPRSCHGPNTFDFIMWSF, the amyloid nucleation score was 0.198 ± 0.66.

DVVSFSKVCVVCGLSWSASY yielded an amyloid nucleation score of 6.662 ± 0.06.

As to PSGTQCTAE, the amyloid nucleation score was -0.047 ± 0.65.

SMDLHMYSKFMRYSVFVCNL returned an amyloid nucleation score of 1.14 ± 0.79.

As for VYRSHLRTNFSTFTSMSSVL, the amyloid nucleation score was -0.626 ± 1.4.

The substance HRSVGSRECRSSSEFYVLR came in with an amyloid nucleation score of 3.77 ± 0.088.

RNPTFFAMCSMCWLSTT yielded an amyloid nucleation score of 0.852 ± 0.97.

In the case of CSYLSLRRKCVDTQFLYDMM, the amyloid nucleation score is -0.199 ± 0.47.

With RGILLSPSLLVYRLTT, the amyloid nucleation score is -0.096 ± 1.2.

As to ALVTVIHAPVFYLWNAFYLC, the amyloid nucleation score was found to be 7.396 ± 0.048.

Substance SVGLTFNGGVYCSHVERTSW gave an amyloid nucleation score of 1.93 ± 0.19.

VHESTSHRMWRSLI: the amyloid nucleation score is 1.15 ± 0.41.

The substance VLEYPSTSAARFSHRVKRK came in with an amyloid nucleation score of 8.434 ± 0.047.

Consider IGACLRQSLVISYDVIFMLL, for which the amyloid nucleation score entry was “inactive”.

Regarding TFTVAEQVALE, the amyloid nucleation score was 0.415 ± 0.47.

For the substance YPPRAQDMTRSAQRKCQRGV, the amyloid nucleation score entry is “inactive”.

MFGGYRSC yielded an amyloid nucleation score of 0.159 ± 1.2.

SWMNS: the amyloid nucleation score came out at 0.759 ± 0.55.

On to MMWLCAVFPGIRFYGYPGLN, for which the amyloid nucleation score was -1.88 ± 2.7.

Substance LGMIADYQKQKMMSSGTSLR registered an amyloid nucleation score of 0.289 ± 0.69.

FSWADLDRYCISLQNQGPLA displayed an amyloid nucleation score of 0.66 ± 0.42.

MFVGGRTNTQMYHMDVVPFQ displayed an amyloid nucleation score of 1.13 ± 0.63.

Turning to GRVKINKNLSVYKYINFRDS, the amyloid nucleation score amounted to 2.04 ± 0.21.

As for WNYIEGASFSRMGEASNAPG, the amyloid nucleation score was -0.944 ± 1.2.

For DFAFYTVTLCFE, the amyloid nucleation score worked out at 0.809 ± 0.35.

Consider LGPVLFKLLRETCAQSYKVM, for which the amyloid nucleation score is -0.005 ± 0.67.

On to TSCSLYIVMRCVWCIYRGAR, for which the amyloid nucleation score was -0.866 ± 2.4.

As to YSNWTVSTSFSNHERHVFLA, the amyloid nucleation score came to 0.839 ± 0.39.

On to ITLNWKIAEFSRCTVQLQNL, for which the amyloid nucleation score was 6.324 ± 0.061.

For the substance VFESIVNGQVMMTLN, the amyloid nucleation score was -1.92 ± 2.4.

LLYLCYIRCI returned an amyloid nucleation score of 0.952 ± 0.65.

Regarding FFRRNHGYNI, the amyloid nucleation score amounted to 0.092 ± 0.43.

TTINIRYPIYSVVMCWYRLE showed an amyloid nucleation score of 5.513 ± 0.045.

On to KRVANDWEYGFGYNPTVVGR, for which the amyloid nucleation score was 0.295 ± 0.46.

In turn, SLVALINNCSVSTKMGSLPY returned an amyloid nucleation score of 0.87 ± 0.22.

Regarding CYNTRVPFGMPLKRTPYRSR, the amyloid nucleation score is -0.509 ± 1.1.

Turning to NYMSMWTV, the amyloid nucleation score stood at 0.324 ± 0.9.

Regarding RSQRGRPWEGGLSTSLGVRR, the amyloid nucleation score is -0.736 ± 1.2.

The substance FLHFMVY gave an amyloid nucleation score of 0.027 ± 0.64.

The substance LMNCVAYAIVEVTCVSCMES registered an amyloid nucleation score of 4.68 ± 0.082.

In turn, LWVFS came in with an amyloid nucleation score of 0.762 ± 0.7.

DHSCWGAWWVHFGAHDGGWC displayed an amyloid nucleation score of 1.25 ± 0.79.

Consider CDNRRNFSSWVVDISKYITI, for which the amyloid nucleation score was -0.946 ± 0.57.

For CSHRM, the amyloid nucleation score was found to be 0.707 ± 0.51.

As for DYESSVGRSQDLAY, the amyloid nucleation score was -0.745 ± 2.4.

MSSESLSMGRLDMG: the amyloid nucleation score result was “inactive”.

Consider ESEWNIMPFDNLYLGRETVW, for which the amyloid nucleation score entry was “inactive”.

FLRFIRSVNFYVKEYAESLL: the amyloid nucleation score was -0.691 ± 0.52.

Consider VWISWMSRISITRLCVWGSV, for which the amyloid nucleation score was 0.379 ± 0.41.

Regarding LSVNWFGCTWQNHKEGIGRN, the amyloid nucleation score is 1.79 ± 0.12.

Regarding KMVLF, the amyloid nucleation score came out at 0.927 ± 0.49.

Consider EFIIAWVWRLHNWVSGFRHS, for which the amyloid nucleation score was 0.343 ± 0.35.

As for VSSHSMGFIVSVVMTCEYRS, the amyloid nucleation score came out at 1.23 ± 0.7.

As to LSLRDLGSLALRGLKMNATR, the amyloid nucleation score was -0.397 ± 0.91.

On to HNYVGDTLGVMSCWPTTRFP, for which the amyloid nucleation score was 0.087 ± 0.87.

LARCRWLVKRVCDGNWCCML gave an amyloid nucleation score of 0.569 ± 0.48.

In the case of YYLSLMYSTLYRTKIFWARE, the amyloid nucleation score is -0.077 ± 0.79.

On to YGRQG, for which the amyloid nucleation score came out at 0.123 ± 0.49.

Consider WETVQLTGRVLFWAISYCKI, for which the amyloid nucleation score is -0.178 ± 0.52.

As for SIRLREL, the amyloid nucleation score was found to be 1.61 ± 0.76.

On to TKIRCDRWTLYIKGITYRAL, for which the amyloid nucleation score amounted to 0.86 ± 1.1.

Consider KVLFLTCYTTPSLNNLVFRC, for which the amyloid nucleation score is -0.069 ± 0.28.

For the substance RGCMAQDSNLYKHVSARTGD, the amyloid nucleation score is -0.179 ± 1.6.

In turn, GLSWYCGHLAKR came in with an amyloid nucleation score of 1.48 ± 0.49.

As for EKLKMVVGWVVPLSAHMQEY, the amyloid nucleation score was determined as 0.609 ± 0.84.

As to FADERIGYSIK, the amyloid nucleation score is -0.336 ± 0.44.

As to KVTMRWV, the amyloid nucleation score worked out at 2.21 ± 0.27.

As to GVVLGYRCLNMGLKALWSYV, the amyloid nucleation score is -0.248 ± 0.48.

Take MCGDIPQ: the amyloid nucleation score is 0.35 ± 0.74.

ECQCFDQICEQLNSYRDQFS came in with an amyloid nucleation score of 0.105 ± 0.97.

On to PFSYLMDLTIYVGKSLQSNE, for which the amyloid nucleation score amounted to 0.119 ± 0.35.

Take NNFSCMDHILSMVKLWDVFG: the amyloid nucleation score is -0.847 ± 0.59.

Take VKLAVREVTSEMPREKLTVA: the amyloid nucleation score came out at 0.236 ± 0.26.

VSGLRRSRSWWAFDVQSLLR gave an amyloid nucleation score of 0.544 ± 0.55.

Regarding SRTICGSEILTSKKTRFHAS, the amyloid nucleation score was -0.702 ± 1.7.

Turning to FLNNLAGWGYPCFTGVYANA, the amyloid nucleation score is -0.195 ± 0.39.

Consider ILEVCRHRVIIIRNYLSYCA, for which the amyloid nucleation score turned out to be 2.8 ± 0.24.

Substance IHNNRVGVYCILNNTQRVE gave an amyloid nucleation score of 0.2 ± 0.61.

Take KMGWLRH: the amyloid nucleation score is -0.566 ± 0.5.

With SGWIKIFG, the amyloid nucleation score is -0.293 ± 0.66.

Substance GFGSRRYFRAVLSCPR registered an amyloid nucleation score of 0.852 ± 0.93.

Substance PYPYAISRYVFMVSNSDMFM came in with an amyloid nucleation score of 4.53 ± 0.054.

In turn, FNSRTAGCRLSTQMFSRKQT had an amyloid nucleation score of 0.402 ± 0.92.

As for MNTSVAWMVR, the amyloid nucleation score is -0.149 ± 0.32.

HMRMGLGRLVHLWYWPTRDT: the amyloid nucleation score was determined as 0.153 ± 0.56.

LMTPEKVNEGATDRLRLFRN: the amyloid nucleation score was -0.323 ± 0.68.

In turn, ELHTAEFNLNRM returned an amyloid nucleation score of 1.04 ± 0.73.

As to NFGIRGRRTAGLEVRCLRRC, the amyloid nucleation score was -1.22 ± 2.7.

The substance KVFINVYIKRQRNKCRRSNR gave an amyloid nucleation score of 5.899 ± 0.054.

On to NRKRFHGMNDASAAYFREVC, for which the amyloid nucleation score was -1.33 ± 2.7.

For VGCKP, the amyloid nucleation score is -0.24 ± 0.75.

For HRLDLSCSWNMNKVRGDWCS, the amyloid nucleation score was -0.058 ± 0.27.

In the case of ISGIECQYTNGRRWGPPS, the amyloid nucleation score was -0.323 ± 0.81.

Take SFFSSVVDF: the amyloid nucleation score came out at 0.2 ± 0.63.
